From patent US20050048527, “Endonuclease-substrate complexes” (Third Wave Technologies, Inc., published 2005) come the findings set out here.

Assay in all cases: cleavage_in_vitro; rate vs Pfu FEN1
The target in one data set is T1, Pfu Y33F FEN1 (Pyrococcus furiosus, UniProt O93634 SEQ:1-340, Y33F).
T1 sequence: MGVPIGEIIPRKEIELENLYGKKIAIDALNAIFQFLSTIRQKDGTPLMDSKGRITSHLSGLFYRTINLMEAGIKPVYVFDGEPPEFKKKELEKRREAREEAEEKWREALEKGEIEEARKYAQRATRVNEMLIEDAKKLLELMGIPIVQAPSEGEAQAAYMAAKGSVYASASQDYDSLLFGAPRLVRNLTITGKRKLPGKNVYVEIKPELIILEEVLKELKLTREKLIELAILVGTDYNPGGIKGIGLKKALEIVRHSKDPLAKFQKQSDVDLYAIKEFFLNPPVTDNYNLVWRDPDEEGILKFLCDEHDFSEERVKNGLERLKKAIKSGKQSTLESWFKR
The following applies: label: 5'-biotin target; 5'-TET probe; hairpin target-INVADER with overlapping probe flap. On the procedure: (§1) For the evaluation of chimeric enzymes, standard tests were performed to measure the performance and specificity of the enzymes. […] 10 μl reactions are run at 59 C for between 5 to 60 minutes depending on the enzyme. Reactions are stopped by the addition of 10 μl of 95% formamide, 0.02% methyl violet. 1 μl of the mixture is run on a denaturing 20% acrylamide gel and electrophoresed for 15 minutes or until good separation is achieved between cleaved and uncleaved probe. The gels are scanned using an FMBIO fluorescent gel scanner and the bands are quantified with FMBIOAnalysis software. Cleavage rates are determined from the percent probe cleaved. Cleavage rate for the INVADER substrate is defined as the number of probe molecules cleaved per target molecule per minute. In Table 5, below, the cleavage rates for the mutant enzymes are compared to the cleavage rates for unmodified Pfu FEN1 enzyme on the INVADER assay and X-structure substrates.
(§2) The X-structure substrate is used to determine the amount of background cleavage an enzyme will carry out in an INVADER reaction. It mimics the structure created by uncut primary probe and secondary FRET cassette in the INVADER squared reaction. […] 10 μl reactions are run at 59 C for between 3 to 30 minutes depending on the enzyme. Reactions are stopped by the addition of 10 μl of 95% formamide, 0.02% methyl violet. 1 μl of the mixture is run on a denaturing 20% acrylamide gel and electophoresed for 15 minutes or until good separation is achieved between cleaved and uncleaved probe. The gels are scanned using an FMBIO fluorescent gel scanner and the bands are quantified with FMBIOAnalysis software. Cleavage rates are determined from the percent probe cleaved.

Another data set deals with T2, Pfu3M FEN1 (Pyrococcus furiosus, UniProt O93634 SEQ:1-340).
T2 chain: T1 sequence with F33Y, E82K, E103L, E110A
On the procedure:
as §1, §2

In a further data set the target is T3, Pho4M FEN1 (Pyrococcus horikoshii, UniProt O50123 SEQ:1-343).
T3 chain: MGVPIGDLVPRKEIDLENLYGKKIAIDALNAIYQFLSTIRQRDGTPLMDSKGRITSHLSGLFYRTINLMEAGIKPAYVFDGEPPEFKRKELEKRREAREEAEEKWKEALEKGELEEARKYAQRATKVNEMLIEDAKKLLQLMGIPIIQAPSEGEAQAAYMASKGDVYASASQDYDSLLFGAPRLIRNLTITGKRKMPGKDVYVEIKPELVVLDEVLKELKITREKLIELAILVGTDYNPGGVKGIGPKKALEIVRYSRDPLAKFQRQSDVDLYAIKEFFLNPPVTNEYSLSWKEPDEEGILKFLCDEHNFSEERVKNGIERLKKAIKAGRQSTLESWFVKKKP
The procedure:
as §1, §2

The target in the next data set is T4, Pho2M FEN1 (Pyrococcus horikoshii, UniProt O50123 SEQ:1-343).
T4 chain: T3 chain with E110A, E113N
On the procedure:
as §1, §2

The target in another data set is T5, Pfu2M FEN1 (Pyrococcus furiosus, UniProt O93634 SEQ:1-340).
T5 chain: T1 sequence with F33Y, E82K, E103L
On the procedure: as §1, §2

Where [1] appears, read: label: 5'-biotin target, 5'-TET probe, hairpin target-INVADER with overlapping probe flap.

Substitutions are numbered along the chain they refer to.

B1: INVADER substrate 594-12-1/203-91-1 (structured_DNA)
DNA 1: TTTTTCACGGCAGTTGGTGCGCCTCGGAACGAGGCGCACA
DNA 2: TTTTCAACTGCCGTGA
For the molecule B1, the cleavage rate with Pfu Y33F FEN1 came to 0.96; in the data set with Pfu3M FEN1 (setting [1]) it was 1.8; with Pho4M FEN1 (setting [1]), 1.3; in the data set with Pho2M FEN1 (setting [1]) it was 1.6; with Pfu2M FEN1 (setting [1]), 1.4.

B2: X-structure 203-81-2/203-91-2 (structured_DNA)
DNA 1: TTTTCAACTGCTTAGAGAATCTAAGCAGTTGGTGCGCCTCGTTAA
DNA 2: AACGAGGCGCACATT
modifications: 3'-NH2 on first strand
In the case of B2, the cleavage rate is 4.9 with Pfu3M FEN1 (label: 5'-TET, X-structure); 2.2 with Pho4M FEN1 (label: 5'-TET, X-structure); 31 in the data set with Pho2M FEN1 (label: 5'-TET, X-structure); 3 with Pfu2M FEN1 (label: 5'-TET, X-structure).
